{"source": "patent EP2441771A1", "about": "“New 12alpha-hydroxysteroid dehydrogenase mutants, method for their manufacture and application thereof” (PharmaZell GmbH, priority 2010, dated 2012)", "key": {"[1]": {"system": "NC(=O)c1ccc[n+]([C@@H]2O[C@H](COP(=O)([O-])OP(=O)(O)OC[C@H]3O[C@@H](n4cnc5c(N)ncnc54)[C@H](OP(=O)(O)O)[C@@H]3O)[C@@H](O)[C@H]2O)c1", "assay": "Enzyme kinetics (Michaelis-Menten) in microtiter plate photometer, cell lysate", "type": "biochemical, Clostridium sp. group P strain 48-50", "conditions": "other: WT; constant 10 mM Cholsäure, 2 µM to 100 µM NADP^+ (16 concentrations); nonlinear regression", "excerpt": "(§1) Für jede der Mutanten sowie für das Wildtyp-Enzym wurden Kinetikmessungen im Mikrotiterplattenphotometer durchgeführt, indem die Umsatzraten der Enzyme sowohl mit gleichbleibenden Substratkonzentrationen bei variierten Kofaktorkonzentrationen als auch vice versa aufgezeichnet wurden. Zur Bestimmung der spezifischen Enzymaktivität wurden die Enzymkonzentrationen im Zelllysat densitometrisch bestimmt.\n(§2) Zur Ermittlung der Abhängigkeit der Substratumsatzgeschwindigkeit von der Substratkonzentration wurde eine Kofaktorkonzentration von 100 µM NADP^+ eingesetzt, während die Substratkonzentration über einen Bereich von 6 µM bis 10 mM Cholsäure mit 32 verschiedenen Konzentrationen variiert wurde.\n(§3) Zur Ermittlung der Abhängigkeit der Substratumsatzgeschwindigkeit von der Kofaktorkonzentration wurde eine Substratkonzentration von 10 mM Cholsäure bezogen auf das Reaktionsvolumen eingesetzt, während die Kofaktorkonzentration über einen Bereich von 2 µM bis 100 µM NADP^+ mit 16 verschiedenen Konzentrationen beim Wildtypprotein bzw. über einen Bereich von 2 µM bis 1000 µM NADP^+ mit 24 verschiedenen Konzentrationen bei den beiden Mutanten variiert wurde (jeweils bezogen auf den Raktionsansatz).\n(§4) Über das eingesetzte Volumen an Zelllysat lässt sich die volumenbezogene Enzymaktivität berechnen. Zusammen mit den bestimmten Enzymkonzentrationen lassen sich die spezifischen Enzymaktivitäten berechnen. […]"}, "[2]": {"system": "C[C@H](CCC(=O)O)[C@H]1CC[C@H]2[C@@H]3[C@H](O)C[C@@H]4C[C@H](O)CC[C@]4(C)[C@H]3C[C@H](O)[C@]12C", "assay": "Enzyme kinetics (Michaelis-Menten) in microtiter plate photometer, cell lysate", "type": "biochemical, Clostridium sp. group P strain 48-50", "conditions": "other: WT; constant 100 µM NADP^+, 6 µM to 10 mM Cholsäure (32 concentrations); nonlinear regression", "excerpt": "as §1, §2, §3, §4"}}, "data": [{"substance": "12α-HSDH (WT), Wildtyp-Enzym, Clostridium sp. group P strain 48-50, SEQ ID NO:6 (Clostridium sp. ATCC 29733)", "values": [{"measurement": "Km", "setting": "[1]", "value": "21,4 ± 2,3 µM"}, {"measurement": "Km", "setting": "[2]", "value": "136 ± 12", "unit": "µM"}]}]}
